21 variants from IntAct's records for PubMed 31515488 can be followed below.

The labels stand for the following.
B1: Germ cell-less protein-like 1 (Homo sapiens), Q96IK5 (parent)
chain: MGSLSSRVLRQPRPALAQQAQGARAGGSARRPDTGDDAAGHGFCYCAGSHKRKRSSGSFCYCHPDSETDEDEEEGDEQQRLLNTPRRKKLKSTSKYIYQTLFLNGENSDIKICALGEEWSLHKIYLCQSGYFSSMFSGSWKESSMNIIELEIPDQNIDVEALQVAFGSLYRDDVLIKPSRVVAILAAACLLQLDGLIQQCGETMKETVNVKTVCGYYTSAGTYGLDSVKKKCLEWLLNNLMTHQNVELFKELSINVMKQLIGSSNLFVMQVEMDIYTALKKWMFLQLVPSWNGSLKQLLTETDVWFSKQRKDFEGMAFLETEQGKPFVSVFRHLRLQYIISDLASARIIEQDAVVPSEWLSSVYKQQWFAMLRAEQDSEVGPQEINKEELEGNSMRCGRKLAKDGEYCWRWTGFNFGFDLLVTYTNRYIIFKRNTLNQPCSGSVSLQPRRSIAFRLRLASFDSSGKLICSRTTGYQILTLEKDQEQVVMNLDSRLLIFPLYICCNFLYISPEKKN
B2: Ropporin-1A (Homo sapiens), Q9HAT0 (parent)
chain: MAQTDKPTCIPPELPKMLKEFAKAAIRVQPQDLIQWAADYFEALSRGETPPVRERSERVALCNRAELTPELLKILHSQVAGRLIIRAEELAQMWKVVNLPTDLFNSVMNVGRFTEEIEWLKFLALACSALGVTITKTLKIVCEVLSCDHNGGSPRIPFSTFQFLYTYIAKVDGEISASHVSRMLNYMEQEVIGPDGIITVNDFTQNPRVQLE
partner: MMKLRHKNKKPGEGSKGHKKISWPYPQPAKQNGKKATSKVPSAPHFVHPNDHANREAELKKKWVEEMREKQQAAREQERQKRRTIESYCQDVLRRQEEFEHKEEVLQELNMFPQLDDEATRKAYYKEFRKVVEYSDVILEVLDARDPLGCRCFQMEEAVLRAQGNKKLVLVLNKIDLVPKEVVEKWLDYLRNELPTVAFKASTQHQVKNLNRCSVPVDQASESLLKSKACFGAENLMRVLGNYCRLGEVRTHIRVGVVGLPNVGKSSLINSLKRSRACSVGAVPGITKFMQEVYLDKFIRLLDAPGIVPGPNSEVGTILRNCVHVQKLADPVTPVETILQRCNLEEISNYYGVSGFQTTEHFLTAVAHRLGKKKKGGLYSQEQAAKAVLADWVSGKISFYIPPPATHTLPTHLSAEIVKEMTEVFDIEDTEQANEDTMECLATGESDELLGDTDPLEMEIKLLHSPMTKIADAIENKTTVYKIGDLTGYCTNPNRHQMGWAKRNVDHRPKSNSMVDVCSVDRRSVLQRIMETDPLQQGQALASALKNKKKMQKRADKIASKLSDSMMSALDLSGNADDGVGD
B3: Retinoic acid receptor alpha (Homo sapiens), P10276 (parent)
chain: MASNSSSCPTPGGGHLNGYPVPPYAFFFPPMLGGLSPPGALTTLQHQLPVSGYSTPSPATIETQSSSSEEIVPSPPSPPPLPRIYKPCFVCQDKSSGYHYGVSACEGCKGFFRRSIQKNMVYTCHRDKNCIINKVTRNRCQYCRLQKCFEVGMSKESVRNDRNKKKKEVPKPECSESYTLTPEVGELIEKVRKAHQETFPALCQLGKYTTNNSSEQRVSLDIDLWDKFSELSTKCIIKTVEFAKQLPGFTTLTIADQITLLKAACLDILILRICTRYTPEQDTMTFSDGLTLNRTQMHNAGFGPLTDLVFAFANQLLPLEMDDAETGLLSAICLICGDRQDLEQPDRVDMLQEPLLEALKVYVRKRRPSRPHMFPKMLMKITDLRSISAKGAERVITLKMEIPGSMPPLIQEMLENSEGLDTLSGQPGGGGRDGGGLAPPPGSCSPSLSPSSNRSSPATHSP
partner: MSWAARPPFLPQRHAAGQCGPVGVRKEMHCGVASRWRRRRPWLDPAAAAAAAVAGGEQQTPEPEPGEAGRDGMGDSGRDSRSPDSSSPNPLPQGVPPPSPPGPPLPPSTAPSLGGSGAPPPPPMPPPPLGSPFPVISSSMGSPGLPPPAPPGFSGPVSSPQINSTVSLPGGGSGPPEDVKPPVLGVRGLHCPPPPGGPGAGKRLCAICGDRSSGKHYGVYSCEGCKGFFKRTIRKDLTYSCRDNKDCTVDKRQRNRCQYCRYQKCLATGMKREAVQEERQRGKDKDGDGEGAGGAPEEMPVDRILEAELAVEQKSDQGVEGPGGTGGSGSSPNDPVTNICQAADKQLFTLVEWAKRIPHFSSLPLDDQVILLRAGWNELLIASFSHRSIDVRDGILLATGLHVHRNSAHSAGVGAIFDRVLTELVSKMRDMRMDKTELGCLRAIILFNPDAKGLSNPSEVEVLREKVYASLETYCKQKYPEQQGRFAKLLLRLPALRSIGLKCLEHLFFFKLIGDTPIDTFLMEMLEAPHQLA
B4: Septin-12 (Homo sapiens), Q8IYM1 (parent)
chain: MDPLRRSPSPCLSSQPSSPSTPPCEMLGPVGIEAVLDQLKIKAMKMGFEFNIMVVGQSGLGKSTMVNTLFKSKVWKSNPPGLGVPTPQTLQLHSLTHVIEEKGVKLKLTVTDTPGFGDQINNDNCWDPILGYINEQYEQYLQEEILITRQRHIPDTRVHCCVYFVPPTGHCLRPLDIEFLQRLCRTVNVVPVIARADSLTMEEREAFRRRIQQNLRTHCIDVYPQMCFDEDINDKILNSKLRDRIPFAVVGADQEHLVNGRCVLGRKTKWGIIEVENMAHCEFPLLRDLLIRSHLQDLKDITHNIHYENYRVIRLNESHLLPRGPGWVNLAPASPGQLTTPRTFKVCRGAHDDSDDEF
partner: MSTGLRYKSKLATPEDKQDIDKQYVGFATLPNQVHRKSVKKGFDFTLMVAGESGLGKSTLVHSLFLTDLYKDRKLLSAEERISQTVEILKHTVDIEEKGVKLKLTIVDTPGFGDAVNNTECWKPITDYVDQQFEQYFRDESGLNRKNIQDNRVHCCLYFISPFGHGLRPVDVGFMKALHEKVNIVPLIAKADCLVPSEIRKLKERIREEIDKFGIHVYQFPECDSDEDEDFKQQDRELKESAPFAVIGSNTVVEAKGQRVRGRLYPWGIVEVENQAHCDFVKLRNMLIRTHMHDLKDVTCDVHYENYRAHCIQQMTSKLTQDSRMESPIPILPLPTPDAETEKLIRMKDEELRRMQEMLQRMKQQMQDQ
B5: U3 small nucleolar RNA-associated protein 14 homolog C (Homo sapiens), Q5TAP6 (parent)
chain: MNVNQVAENLALSHQEELVDLPKNYPLSENEDEGDSDGERKHQKLLEAIISLDGKNRRKLAERSEASLKVSEFSVSSEGSGEKLGLADLLEPVKTSSSLATVKKQLNRVKSKKVVELPLNKEKIEQIHREVAFSKTSQVLSKWDPIILKNQQAEQLVFPLGKEQPAIAPIEHALSGWKARTPLEQEIFNLLHKNKQPVTDPLLTPMEKASLQAMSLEEAKMHRAELQRARALQSYYEAKARKEKKIKSKKYHKVVKKGKAKKALKEFEQLQKVNPTVALEEMEKIENARMMERMSLKHQNSGKWAKSKAIMAKYDLEARQAMQEQLAKNKELTQKLQVASESEEEEGGTEVEELLVPHVANEVQMNVDGPNPWMFRSCTSDTKEAATQEDPEQVPELAAHEVSASEAEERPVAEEEILLREFEERQSLRKRSELNQDAEPASSQETKDSSSQEVLSELRALSQKLKEKHQSRKQKASSEGTVPQVQREEPAPEEAEPLLLQRSERVQTLEELEELGKEDCFQNKELPRPVLEGQQSERTPNNRPDAPKEKKEKEQLINLQNFLTTQSPSVRSLAVPTIIEELEDEEERDQRQMIKEAFAGDDVIRDFLKEKREAVEASKPKDVDLTLPGWGEWGGVGLKPSAKKRRQFLIKAPEGPPRKDKNLPNVIISEKRNIHAAAHQVQVLPYPFTHHRQFERTIQTPIGSTWNTQRAFQKLTTPKVVTKPGHIIKPIKAEDVGYQSSSRSDLPVIQRNPKRITTRHNKEEKL
partner: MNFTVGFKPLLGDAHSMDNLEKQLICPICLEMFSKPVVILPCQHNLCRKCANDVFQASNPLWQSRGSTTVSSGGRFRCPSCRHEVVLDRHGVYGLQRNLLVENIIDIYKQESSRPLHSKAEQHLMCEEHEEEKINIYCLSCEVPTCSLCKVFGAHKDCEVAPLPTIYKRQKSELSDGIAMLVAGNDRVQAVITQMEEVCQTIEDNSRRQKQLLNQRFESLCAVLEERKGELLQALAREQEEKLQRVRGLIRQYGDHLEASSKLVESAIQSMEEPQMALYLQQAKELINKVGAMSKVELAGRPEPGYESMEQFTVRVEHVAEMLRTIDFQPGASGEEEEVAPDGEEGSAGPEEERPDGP

The first assay covers variants of B1. As to conditions: with cul3_human CUL3, Q13618.
Regarding R457H, the “effect of a mutation on the interaction” value is “with no effect”.
Same read-out and setting: with Y61S the entry was “with no effect”.

The variants in another assay derive from B1. As to conditions: with FAM167A.
As for R457H, the “effect of a mutation on the interaction” value was “disrupting interaction strength”.
Same read-out and setting: as for Y61S, the entry is “with no effect”.

Variants of B2 are the subject of another assay. As to conditions: with gnl3l_human GNL3L.
With C62W, the “effect of a mutation on the interaction” value is “with no effect”.

In a further assay the parent is B3. As to conditions: with rxrb_human RXRB.
As to P318R, the “effect of a mutation on the interaction” value is “with no effect”.

In the next assay the parent is B4. As to conditions: with sept5_human SEPTIN5, Q99719.
As for R311C, the “effect of a mutation on the interaction” value was “with no effect”.
Still for that read-out and setting: with D197N the entry was “disrupting interaction strength”; with V162M, “disrupting interaction strength”; with T111K, “disrupting interaction strength”.
On the same count and under the same terms, as for G169E, the entry is “disrupting interaction strength”; as for C184S, “with no effect”.
As to K73N, the “effect of a mutation on the interaction” value was “with no effect”.
With Q213R, the “effect of a mutation on the interaction” value is reported as “disrupting interaction strength”.
The same measure, in the same setting: with R204Q the entry was “disrupting interaction strength”; with V263D, “disrupting interaction strength”.

In the next assay the parent is B5. As to conditions: with tri54_human TRIM54, Q9BYV2.
As to V570M, the “effect of a mutation on the interaction” value is listed as “with no effect”.
As for K247E, the “effect of a mutation on the interaction” value was “with no effect”.
The same measure, in the same setting: with T101A the entry was “disrupting interaction strength”; with R672H, “with no effect”; with I170V, “with no effect”.
Same read-out and setting: with A652T the entry was “with no effect”; with V109D, “with no effect”.
